15 molecules from patent US20110118131A1 (published 2011) can be followed below.

The labels stand for the following.
B1: XPA23 Fab, heavy chain F35W (Fab, V domains shown)
VH: EVQLLESGGGLVQPGGSLRLSCAASGFTFSKYFMWWVRQAPGKGLEWVSVISPSGGMTRYADSVKGRFTISRDNSKNTLYLQMNSLRAEDTAVYYCARVGYGGNSDYWGQGTLVTVSS
VL: DIQMTQSPSSVSASVGDRLTIICRASQDINRWLAWYQQTPGNAPKLLIHSATSLQSGVPSRFSGSGSGTDFTLTINSLQPEDFATYYCQQADSFPLTFGGGTKVEIK
B2: XPA23 Fab, heavy chain G56E (Fab, V domains shown)
VH: EVQLLESGGGLVQPGGSLRLSCAASGFTFSKYFMFWVRQAPGKGLEWVSVISPSGEMTRYADSVKGRFTISRDNSKNTLYLQMNSLRAEDTAVYYCARVGYGGNSDYWGQGTLVTVSS
VL: DIQMTQSPSSVSASVGDRLTIICRASQDINRWLAWYQQTPGNAPKLLIHSATSLQSGVPSRFSGSGSGTDFTLTINSLQPEDFATYYCQQADSFPLTFGGGTKVEIK
B3: XPA23 Fab, heavy chain G55Y (Fab, V domains shown)
VH: EVQLLESGGGLVQPGGSLRLSCAASGFTFSKYFMFWVRQAPGKGLEWVSVISPSYGMTRYADSVKGRFTISRDNSKNTLYLQMNSLRAEDTAVYYCARVGYGGNSDYWGQGTLVTVSS
VL: DIQMTQSPSSVSASVGDRLTIICRASQDINRWLAWYQQTPGNAPKLLIHSATSLQSGVPSRFSGSGSGTDFTLTINSLQPEDFATYYCQQADSFPLTFGGGTKVEIK
B4: XPA23 Fab, heavy chain G56D (Fab, V domains shown)
VH: EVQLLESGGGLVQPGGSLRLSCAASGFTFSKYFMFWVRQAPGKGLEWVSVISPSGDMTRYADSVKGRFTISRDNSKNTLYLQMNSLRAEDTAVYYCARVGYGGNSDYWGQGTLVTVSS
VL: DIQMTQSPSSVSASVGDRLTIICRASQDINRWLAWYQQTPGNAPKLLIHSATSLQSGVPSRFSGSGSGTDFTLTINSLQPEDFATYYCQQADSFPLTFGGGTKVEIK
B5: XPA23 Fab, heavy chain G55D (Fab, V domains shown)
VH: EVQLLESGGGLVQPGGSLRLSCAASGFTFSKYFMFWVRQAPGKGLEWVSVISPSDGMTRYADSVKGRFTISRDNSKNTLYLQMNSLRAEDTAVYYCARVGYGGNSDYWGQGTLVTVSS
VL: DIQMTQSPSSVSASVGDRLTIICRASQDINRWLAWYQQTPGNAPKLLIHSATSLQSGVPSRFSGSGSGTDFTLTINSLQPEDFATYYCQQADSFPLTFGGGTKVEIK
B6: XPA23 Fab, heavy chain G55R (Fab, V domains shown)
VH: EVQLLESGGGLVQPGGSLRLSCAASGFTFSKYFMFWVRQAPGKGLEWVSVISPSRGMTRYADSVKGRFTISRDNSKNTLYLQMNSLRAEDTAVYYCARVGYGGNSDYWGQGTLVTVSS
VL: DIQMTQSPSSVSASVGDRLTIICRASQDINRWLAWYQQTPGNAPKLLIHSATSLQSGVPSRFSGSGSGTDFTLTINSLQPEDFATYYCQQADSFPLTFGGGTKVEIK
B7: XPA23 Fab, heavy chain G56K (Fab, V domains shown)
VH: EVQLLESGGGLVQPGGSLRLSCAASGFTFSKYFMFWVRQAPGKGLEWVSVISPSGKMTRYADSVKGRFTISRDNSKNTLYLQMNSLRAEDTAVYYCARVGYGGNSDYWGQGTLVTVSS
VL: DIQMTQSPSSVSASVGDRLTIICRASQDINRWLAWYQQTPGNAPKLLIHSATSLQSGVPSRFSGSGSGTDFTLTINSLQPEDFATYYCQQADSFPLTFGGGTKVEIK
B8: XPA23 Fab, heavy chain F35Y (Fab, V domains shown)
VH: EVQLLESGGGLVQPGGSLRLSCAASGFTFSKYFMYWVRQAPGKGLEWVSVISPSGGMTRYADSVKGRFTISRDNSKNTLYLQMNSLRAEDTAVYYCARVGYGGNSDYWGQGTLVTVSS
VL: DIQMTQSPSSVSASVGDRLTIICRASQDINRWLAWYQQTPGNAPKLLIHSATSLQSGVPSRFSGSGSGTDFTLTINSLQPEDFATYYCQQADSFPLTFGGGTKVEIK
B9: XPA23 Fab, heavy chain G56H (Fab, V domains shown)
VH: EVQLLESGGGLVQPGGSLRLSCAASGFTFSKYFMFWVRQAPGKGLEWVSVISPSGHMTRYADSVKGRFTISRDNSKNTLYLQMNSLRAEDTAVYYCARVGYGGNSDYWGQGTLVTVSS
VL: DIQMTQSPSSVSASVGDRLTIICRASQDINRWLAWYQQTPGNAPKLLIHSATSLQSGVPSRFSGSGSGTDFTLTINSLQPEDFATYYCQQADSFPLTFGGGTKVEIK
B10: XPA23 Fab, heavy chain G55Q (Fab, V domains shown)
VH: EVQLLESGGGLVQPGGSLRLSCAASGFTFSKYFMFWVRQAPGKGLEWVSVISPSQGMTRYADSVKGRFTISRDNSKNTLYLQMNSLRAEDTAVYYCARVGYGGNSDYWGQGTLVTVSS
VL: DIQMTQSPSSVSASVGDRLTIICRASQDINRWLAWYQQTPGNAPKLLIHSATSLQSGVPSRFSGSGSGTDFTLTINSLQPEDFATYYCQQADSFPLTFGGGTKVEIK
B11: XPA23 Fab, heavy chain G55E (Fab, V domains shown)
VH: EVQLLESGGGLVQPGGSLRLSCAASGFTFSKYFMFWVRQAPGKGLEWVSVISPSEGMTRYADSVKGRFTISRDNSKNTLYLQMNSLRAEDTAVYYCARVGYGGNSDYWGQGTLVTVSS
VL: DIQMTQSPSSVSASVGDRLTIICRASQDINRWLAWYQQTPGNAPKLLIHSATSLQSGVPSRFSGSGSGTDFTLTINSLQPEDFATYYCQQADSFPLTFGGGTKVEIK
B12: XPA23 Fab, heavy chain G55S (Fab, V domains shown)
VH: EVQLLESGGGLVQPGGSLRLSCAASGFTFSKYFMFWVRQAPGKGLEWVSVISPSSGMTRYADSVKGRFTISRDNSKNTLYLQMNSLRAEDTAVYYCARVGYGGNSDYWGQGTLVTVSS
VL: DIQMTQSPSSVSASVGDRLTIICRASQDINRWLAWYQQTPGNAPKLLIHSATSLQSGVPSRFSGSGSGTDFTLTINSLQPEDFATYYCQQADSFPLTFGGGTKVEIK
B13: XPA23 Fab, heavy chain G55N (Fab, V domains shown)
VH: EVQLLESGGGLVQPGGSLRLSCAASGFTFSKYFMFWVRQAPGKGLEWVSVISPSNGMTRYADSVKGRFTISRDNSKNTLYLQMNSLRAEDTAVYYCARVGYGGNSDYWGQGTLVTVSS
VL: DIQMTQSPSSVSASVGDRLTIICRASQDINRWLAWYQQTPGNAPKLLIHSATSLQSGVPSRFSGSGSGTDFTLTINSLQPEDFATYYCQQADSFPLTFGGGTKVEIK
B14: XPA23 Fab, heavy chain G56F (Fab, V domains shown)
VH: EVQLLESGGGLVQPGGSLRLSCAASGFTFSKYFMFWVRQAPGKGLEWVSVISPSGFMTRYADSVKGRFTISRDNSKNTLYLQMNSLRAEDTAVYYCARVGYGGNSDYWGQGTLVTVSS
VL: DIQMTQSPSSVSASVGDRLTIICRASQDINRWLAWYQQTPGNAPKLLIHSATSLQSGVPSRFSGSGSGTDFTLTINSLQPEDFATYYCQQADSFPLTFGGGTKVEIK
B15: XPA23 Fab, heavy chain G55K (Fab, V domains shown)
VH: EVQLLESGGGLVQPGGSLRLSCAASGFTFSKYFMFWVRQAPGKGLEWVSVISPSKGMTRYADSVKGRFTISRDNSKNTLYLQMNSLRAEDTAVYYCARVGYGGNSDYWGQGTLVTVSS
VL: DIQMTQSPSSVSASVGDRLTIICRASQDINRWLAWYQQTPGNAPKLLIHSATSLQSGVPSRFSGSGSGTDFTLTINSLQPEDFATYYCQQADSFPLTFGGGTKVEIK

This assay addresses T1, IL-1beta (UniProt P01584 117-269).
T1 construct: also called IL-1β
The assay can be described thus: Biacore. (Surface plasmon resonance follows binding to a sensor surface in real time, without labels.)
For B1, the binding result is recorded as “no binding”. Take B2: the “fold difference in affinity vs parental” value came to 1.21 fold. Take B3: the “fold difference in affinity vs parental” value came out at 0.08 fold. Turning to B4, the “fold difference in affinity vs parental” value stood at 0.05 fold. In the case of B5, the binding result is reported as “no binding”. In the case of B6, the “fold difference in affinity vs parental” value is 0.95 fold. In the case of B7, the “fold difference in affinity vs parental” value was found to be 2.05 fold. Take B8: the “fold difference in affinity vs parental” value was 0.85 fold. Turning to B9, the “fold difference in affinity vs parental” value worked out at 0.82 fold. For B10, the “fold difference in affinity vs parental” value worked out at 0.9 fold. On the same count and under the same terms, under B11 stands 0.11 fold; under B12, 1.02 fold. Still for that read-out and setting: under B13 stands 0.1 fold; under B14, 1.41 fold; under B15, 0.11 fold.
